Assays:
[1] = molecular target: gp275-do, the minimal MC1 domain of gp275 (Acanthamoeba polyphaga mimivirus) (UniProt Q5UPU2); assay: SEC
SEC = molecular target: the molecule itself; assay: SEC

Molecule	stoichiometry N [1]	stoichiometry N (SEC)
gp275-do, the minimal MC1 domain of gp275 (from UniProt Q5UPU2 97-228) (domain or fragment)	2	
Acanthamoeba polyphaga mimivirus gp275 (encoded by gene R252) (natural protein, UniProt Q5UPU2 1-278, looked up) MMIHIHQDKKMSTRSNKKSTKTEKVAKATKPVENVEVSDNEVQEQAVKTKASGKKVTAKSTKQSGGKNAKSGSKSAKSGSKSAKSGSKTSKTQSGGKGDESRDRYFKLIDAKTGRSFGRYTGGTPKQAASKGFTKMIHKIKAEGGALPKNGTMKIYLRESTRGSPRKVYAYEATRKQLTEPQKIEIEGSDGKKKVITYRYRNVIHKVSAPLPNQLGGLKTSRSNKKSGETKKSGSRSSGSKRSAKPTKSAKNAKSTGNKKVSTKSAGAKKAPAAKASR		4
gp275-K126A (natural protein, Acanthamoeba polyphaga mimivirus, UniProt Q5UPU2 1-278, looked up) MMIHIHQDKKMSTRSNKKSTKTEKVAKATKPVENVEVSDNEVQEQAVKTKASGKKVTAKSTKQSGGKNAKSGSKSAKSGSKSAKSGSKTSKTQSGGKGDESRDRYFKLIDAKTGRSFGRYTGGTPAQAASKGFTKMIHKIKAEGGALPKNGTMKIYLRESTRGSPRKVYAYEATRKQLTEPQKIEIEGSDGKKKVITYRYRNVIHKVSAPLPNQLGGLKTSRSNKKSGETKKSGSRSSGSKRSAKPTKSAKNAKSTGNKKVSTKSAGAKKAPAAKASR		4
